Assay results published in patent US20060204957A1 (published 2006).

B2: MTA1s (other)
chain: MAANMYRVGDYVYFENSSSNPYLIRRIEELNKTANGNVEAKVVCFYRRRDISSTLIALADKHATLSVCYKAGPGADNGEEGEIEEEMENPEMVDLPEKLKHQLRHRELFLSRQLESLPATHIRGKCSVTLLNETESLKSYLEREDFFFYSLVYDPQQKTLLADKGEIRVGNRYQADITDLLKEGEEDGRDQSRLETQVWEAHNPLTDKQIDQFLVVARSVGTFARALDCSSSVRQPSLHMSAAAASRDITLFHAMDTLHKNIYDISKAISALVPQGGPVLCRDEMEEWSASEANLFEEALEKYGKDFTDIQQDFLPWKSLTSIIEYYYMWKTTDRYVQQKRLKAAEAESKLKQVYIPNYNKPNPNQISVNNVKAGVVNGTGAPGQSPGAGRACESCYMSSLRILLDILEEIWWLENANPVRWREARTKPQ
notes: also called MTA1s (short); S2 clone
B5: MTA1s-del (other)
chain: MAANMYRVGDYVYFENSSSNPYLIRRIEELNKTANGNVEAKVVCFYRRRDISSTLIALADKHATLSVCYKAGPGADNGEEGEIEEEMENPEMVDLPEKLKHQLRHRELFLSRQLESLPATHIRGKCSVTLLNETESLKSYLEREDFFFYSLVYDPQQKTLLADKGEIRVGNRYQADITDLLKEGEEDGRDQSRLETQVWEAHNPLTDKQIDQFLVVARSVGTFARALDCSSSVRQPSLHMSAAAASRDITLFHAMDTLHKNIYDISKAISALVPQGGPVLCRDEMEEWSASEANLFEEALEKYGKDFTDIQQDFLPWKSLTSIIEYYYMWKTTDRYVQQKRLKAAEAESKLKQVYIPNYNKPNPNQISVNNVKAGVVNGTGAPGQSPGAGRACESCYMSSDILEEIWWLENANPVRWREARTKPQ
B8: MTA1s-stop (other)
chain: MAANMYRVGDYVYFENSSSNPYLIRRIEELNKTANGNVEAKVVCFYRRRDISSTLIALADKHATLSVCYKAGPGADNGEEGEIEEEMENPEMVDLPEKLKHQLRHRELFLSRQLESLPATHIRGKCSVTLLNETESLKSYLEREDFFFYSLVYDPQQKTLLADKGEIRVGNRYQADITDLLKEGEEDGRDQSRLETQVWEAHNPLTDKQIDQFLVVARSVGTFARALDCSSSVRQPSLHMSAAAASRDITLFHAMDTLHKNIYDISKAISALVPQGGPVLCRDEMEEWSASEANLFEEALEKYGKDFTDIQQDFLPWKSLTSIIEYYYMWKTTDRYVQQKRLKAAEAESKLKQVYIPNYNKPNPNQISVNNVKAGVVNGTGAPGQSPGAGRACESCY

How the values were obtained:
MTA1s-stop = target: B8; assay: GST pull-down (FIG. 4C)
MTA1s-del = target: B5; assay: GST pull-down (FIG. 4C)
[1] = target: T1, Homologs to eukaryotic translation initiation factor 3, subunit 6 (48 kD) (UniProt P60228 1-445, limits assumed); assay: FIG. 14 legend
T1 construct: Two-hybrid isolate; also called Cone S 64-1
T1 sequence (P60228 whole entry): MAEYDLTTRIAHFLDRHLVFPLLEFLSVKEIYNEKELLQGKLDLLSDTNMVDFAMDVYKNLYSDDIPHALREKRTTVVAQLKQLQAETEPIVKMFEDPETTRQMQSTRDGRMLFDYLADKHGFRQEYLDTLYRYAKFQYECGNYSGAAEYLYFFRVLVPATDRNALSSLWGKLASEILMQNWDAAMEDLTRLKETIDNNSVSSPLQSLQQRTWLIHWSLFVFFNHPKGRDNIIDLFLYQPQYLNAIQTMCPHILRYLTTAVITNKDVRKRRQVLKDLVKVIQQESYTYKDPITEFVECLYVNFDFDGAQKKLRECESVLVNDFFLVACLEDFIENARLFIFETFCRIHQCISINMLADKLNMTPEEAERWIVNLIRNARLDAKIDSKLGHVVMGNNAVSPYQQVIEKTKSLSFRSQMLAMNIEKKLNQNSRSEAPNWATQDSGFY

[2] = target: T2, bifunctional ATP sulfurylase/adenosine 5'-phosphosulfate (APS) kinase (UniProt O43252 1-624, limits assumed); assay: yeast two-hybrid screen for MTA1s-interacting proteins
T2 construct: Two-hybrid isolate
T2 sequence (looked up): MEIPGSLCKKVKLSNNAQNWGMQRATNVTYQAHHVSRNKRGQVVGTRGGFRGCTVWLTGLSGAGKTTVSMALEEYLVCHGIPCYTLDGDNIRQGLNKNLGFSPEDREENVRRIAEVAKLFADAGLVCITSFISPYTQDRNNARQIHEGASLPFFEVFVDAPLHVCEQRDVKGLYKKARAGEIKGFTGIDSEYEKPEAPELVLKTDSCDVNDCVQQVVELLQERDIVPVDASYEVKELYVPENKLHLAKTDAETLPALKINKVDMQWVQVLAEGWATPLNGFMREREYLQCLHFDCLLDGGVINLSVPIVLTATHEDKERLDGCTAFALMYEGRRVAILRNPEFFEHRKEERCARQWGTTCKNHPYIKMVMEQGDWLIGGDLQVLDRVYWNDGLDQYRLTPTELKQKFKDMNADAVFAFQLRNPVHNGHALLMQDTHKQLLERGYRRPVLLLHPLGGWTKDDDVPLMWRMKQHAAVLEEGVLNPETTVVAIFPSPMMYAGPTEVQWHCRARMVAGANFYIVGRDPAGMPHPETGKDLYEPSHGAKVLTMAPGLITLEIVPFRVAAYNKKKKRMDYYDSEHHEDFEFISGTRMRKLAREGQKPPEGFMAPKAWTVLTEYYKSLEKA

MTA1s = target: B2; assay: FIG. 14 legend
Estrogen Receptor α (ER) = target: T3, Estrogen Receptor α (ER) (UniProt P03372 1-595); assay: immunoprecipitation with T7-mAb, immunoblot for ERα (FIG. 4D)
T3 construct: Endogenous intracellular receptor in breast cancer cell lysates, and ER where no construct is named; also called ERα; endogenous ER
T3 sequence (looked up): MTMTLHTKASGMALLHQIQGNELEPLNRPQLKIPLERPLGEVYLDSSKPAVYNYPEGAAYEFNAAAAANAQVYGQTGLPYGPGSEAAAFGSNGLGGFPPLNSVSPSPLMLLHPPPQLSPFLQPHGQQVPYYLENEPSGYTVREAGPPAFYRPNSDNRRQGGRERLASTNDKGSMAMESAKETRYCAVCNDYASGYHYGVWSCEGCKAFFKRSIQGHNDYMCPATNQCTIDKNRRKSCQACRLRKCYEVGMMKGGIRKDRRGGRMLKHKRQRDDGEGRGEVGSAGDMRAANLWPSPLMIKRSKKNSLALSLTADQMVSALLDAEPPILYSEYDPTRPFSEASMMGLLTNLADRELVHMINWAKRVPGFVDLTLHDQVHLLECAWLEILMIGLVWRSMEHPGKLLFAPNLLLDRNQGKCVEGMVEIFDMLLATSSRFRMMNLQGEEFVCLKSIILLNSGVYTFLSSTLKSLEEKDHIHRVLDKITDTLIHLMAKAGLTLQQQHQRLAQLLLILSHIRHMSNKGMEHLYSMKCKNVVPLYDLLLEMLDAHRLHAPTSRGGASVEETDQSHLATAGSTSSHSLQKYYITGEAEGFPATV

GAD-ERα = target: T4, GAD-ERα (UniProt P03372 1-536); assay: yeast two-hybrid (FIG. 4B)
T4 construct: range 1-536; Yeast two-hybrid prey; also called GAD-ERα amino acids 1-536
T4 sequence (looked up): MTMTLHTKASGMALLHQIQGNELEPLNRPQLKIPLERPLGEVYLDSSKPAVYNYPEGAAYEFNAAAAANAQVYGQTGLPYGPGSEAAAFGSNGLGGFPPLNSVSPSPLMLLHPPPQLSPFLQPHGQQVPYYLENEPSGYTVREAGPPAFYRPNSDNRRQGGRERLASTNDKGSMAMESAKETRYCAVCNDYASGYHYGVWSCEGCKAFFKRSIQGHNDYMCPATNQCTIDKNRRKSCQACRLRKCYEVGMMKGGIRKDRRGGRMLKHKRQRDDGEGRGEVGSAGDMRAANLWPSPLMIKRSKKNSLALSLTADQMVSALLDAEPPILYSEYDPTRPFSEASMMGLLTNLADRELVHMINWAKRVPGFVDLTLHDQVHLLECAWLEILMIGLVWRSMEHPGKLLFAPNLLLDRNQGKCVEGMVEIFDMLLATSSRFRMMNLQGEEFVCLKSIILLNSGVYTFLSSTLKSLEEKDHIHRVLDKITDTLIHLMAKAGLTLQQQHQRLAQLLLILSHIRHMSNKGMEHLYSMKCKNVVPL

B1: GST-AF2 domain of the ER (receptor, UniProt P03372 282-595, looked up)
chain: SAGDMRAANLWPSPLMIKRSKKNSLALSLTADQMVSALLDAEPPILYSEYDPTRPFSEASMMGLLTNLADRELVHMINWAKRVPGFVDLTLHDQVHLLECAWLEILMIGLVWRSMEHPGKLLFAPNLLLDRNQGKCVEGMVEIFDMLLATSSRFRMMNLQGEEFVCLKSIILLNSGVYTFLSSTLKSLEEKDHIHRVLDKITDTLIHLMAKAGLTLQQQHQRLAQLLLILSHIRHMSNKGMEHLYSMKCKNVVPLYDLLLEMLDAHRLHAPTSRGGASVEETDQSHLATAGSTSSHSLQKYYITGEAEGFPATV
notes: domain: AF2 domain; Immobilized on glutathione-sepharose beads; also called AF2 domain of ERα; not shown: glutathione S-transferase
- binding result (MTA1s-stop): no binding
- binding result (MTA1s-del): no binding

Binder: B2
- binding result [1]: binds
- binding result [2]: binds

B3: Casein Kinase 1, γ2 (enzyme)
chain: not shown
notes: Two-hybrid isolate; also called clone S55-1
- binding result (MTA1s): binds

B4: T7-MTA1sdel (other, not shown: small tags and cut ends)
chain: MAANMYRVGDYVYFENSSSNPYLIRRIEELNKTANGNVEAKVVCFYRRRDISSTLIALADKHATLSVCYKAGPGADNGEEGEIEEEMENPEMVDLPEKLKHQLRHRELFLSRQLESLPATHIRGKCSVTLLNETESLKSYLEREDFFFYSLVYDPQQKTLLADKGEIRVGNRYQADITDLLKEGEEDGRDQSRLETQVWEAHNPLTDKQIDQFLVVARSVGTFARALDCSSSVRQPSLHMSAAAASRDITLFHAMDTLHKNIYDISKAISALVPQGGPVLCRDEMEEWSASEANLFEEALEKYGKDFTDIQQDFLPWKSLTSIIEYYYMWKTTDRYVQQKRLKAAEAESKLKQVYIPNYNKPNPNQISVNNVKAGVVNGTGAPGQSPGAGRACESCYMSSDILEEIWWLENANPVRWREARTKPQ
notes: Expressed in MCF-7 cells for immunoprecipitation with T7-mAb; also called T7-tagged MTA1s-del
- binding result (Estrogen Receptor α (ER)): no binding

Binder: B5
- binding result (GAD-ERα): no binding

B6: LMO4 (other, UniProt P61968 1-165, looked up)
chain: MVNPGSSSQPPPVTAGSLSWKRCAGCGGKIADRFLLYAMDSYWHSRCLKCSCCQAQLGDIGTSCYTKSGMILCRNDYIRLFGNSGACSACGQSIPASELVMRAQGNVYHLKCFTCSTCRNRLVPGDRFHYINGSLFCEHDRPTALINGHLNSLQSNPLLPDQKVC
notes: Two-hybrid isolate; also called LIM 04; LIM04
- binding result (MTA1s): binds

B7: T7-MTA1sstop (other, not shown: small tags and cut ends)
chain: MAANMYRVGDYVYFENSSSNPYLIRRIEELNKTANGNVEAKVVCFYRRRDISSTLIALADKHATLSVCYKAGPGADNGEEGEIEEEMENPEMVDLPEKLKHQLRHRELFLSRQLESLPATHIRGKCSVTLLNETESLKSYLEREDFFFYSLVYDPQQKTLLADKGEIRVGNRYQADITDLLKEGEEDGRDQSRLETQVWEAHNPLTDKQIDQFLVVARSVGTFARALDCSSSVRQPSLHMSAAAASRDITLFHAMDTLHKNIYDISKAISALVPQGGPVLCRDEMEEWSASEANLFEEALEKYGKDFTDIQQDFLPWKSLTSIIEYYYMWKTTDRYVQQKRLKAAEAESKLKQVYIPNYNKPNPNQISVNNVKAGVVNGTGAPGQSPGAGRACESCY
notes: Expressed in MCF-7 cells for immunoprecipitation with T7-mAb; also called T7-tagged MTA1s-stop
- binding result (Estrogen Receptor α (ER)): no binding

Binder: B8
- binding result (GAD-ERα): no binding
